Positions count from the first letter of the chain named. Numbers in names are those of the source.
B1: WT 2J88 antibody (antibody, V domains shown)
VH: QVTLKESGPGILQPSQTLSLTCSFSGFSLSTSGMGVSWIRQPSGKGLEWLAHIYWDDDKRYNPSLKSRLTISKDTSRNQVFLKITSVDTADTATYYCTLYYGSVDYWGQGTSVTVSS
VL: DIQMTQSPASLSASVGETVTITCRASENIYSYLTWYQQKQGKSPQLLVYNAKTLAEGVPSRFSGSGSGTQFSLKISSLQPEDFGNYYCQHHYGTRTFGGGTRLEIK
notes: heavy-chain variable domain of the antibody in PDB 2J88; human IgG1 heavy constant region, from the vector pFUSEss-CHIg-hG1; light-chain variable domain of the antibody in PDB 2J88; human kappa constant region, from the vector pFUSEss-CLIg-hk; the abstract says one lambda and one kappa antibody were tested; Expressed as IgG (human IgG1 constant regions from pFUSE vectors) with the variable …
B2: L14_7 (antibody, V domains shown)
VH: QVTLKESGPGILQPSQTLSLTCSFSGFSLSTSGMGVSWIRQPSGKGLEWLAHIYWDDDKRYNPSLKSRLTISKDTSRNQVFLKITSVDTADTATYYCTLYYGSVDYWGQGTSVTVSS
VL: B1 VL with A25S, E27R, N28D, Y30K, S31D, L33I, Q70E
notes: as the heavy-chain variable domain of m1 (PDB 2J88); human IgG1 heavy constant region, from the vector pFUSEss-CHIg-hG1; as the light-chain variable domain of m1 (PDB 2J88) with a designed L1 (cluster L1-11-2, six amino acid differences) and one difference in the L4 (DE) loop; human kappa constant region, from the vector pFUSEss-CLIg-hk; kappa inferred as for m1; IgG; Computational design (RAbD) …
B3: WT 2J88 antibody Y38K (antibody, V domains shown)
VH: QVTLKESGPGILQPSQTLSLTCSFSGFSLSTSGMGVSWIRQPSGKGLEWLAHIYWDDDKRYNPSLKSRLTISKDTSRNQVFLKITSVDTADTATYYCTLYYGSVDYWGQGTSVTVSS
VL: B1 VL with Y30K
notes: as the heavy-chain variable domain of m1 (PDB 2J88); human IgG1 heavy constant region, from the vector pFUSEss-CHIg-hG1; as the light-chain variable domain of m1 (PDB 2J88) with Y38K in L1; human kappa constant region, from the vector pFUSEss-CLIg-hk; kappa inferred as for m1; IgG; Position 38 is most likely AHo numbering; source: 293F cells, transfected (pFUSE vectors), purified (rProtein A …)

Legend:
Bee Hyaluronidase [1] = target: T1, Bee Hyaluronidase (Apis mellifera (honeybee)); assay: SPR; ProteOn XPR36 (Bio-Rad), GLC chip; IgG captured on amine-coupled anti-human capture antibody (Human Antibody Capture Kit), antigen as analyte; 1x HBS-EP+ pH 7.4 with BSA 1 mg/ml; equilibrium or kinetic Langmuir model; conditions: both partners purified
T1 construct: also called the main allergen in bee venom
T1 sequence (heavy, as listed by the source): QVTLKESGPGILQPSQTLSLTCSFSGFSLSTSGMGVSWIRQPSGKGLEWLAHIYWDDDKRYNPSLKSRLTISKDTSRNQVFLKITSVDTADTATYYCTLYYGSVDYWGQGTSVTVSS

Bee Hyaluronidase [2] = target: T1, Bee Hyaluronidase; assay: SPR; Biacore 4000, CM5 chip; IgG captured on amine-coupled anti-human capture antibody (Human Antibody Capture Kit), antigen as analyte; 1x HBS-EP+ pH 7.4 with BSA 1 mg/ml; equilibrium or kinetic Langmuir model; apparent KD; conditions: both partners purified

Binder	Kd (Bee Hyaluronidase [1])	Kd (Bee Hyaluronidase [2])
B1	9.2 nM	
B2	0.77 nM	
B3		4.3 nM
